B1: K8-355 (antibody, mouse IgG1, V domains shown)
VH: QIQLVQSGPELKKPGETVKISCKASKYTFTNYGMNWVKQAPGKVLRWMGWINTYTGEPTYADDFKGRFAFSLETSASTAYLQINNLKNEDMATYFCATTTLITYYFDYWGQGTTLTVSS
VL: DIQMTQTTSSLSASLGDRVTISCRSSQDISKYLNWYQQKPDGTVKLLIYYTSRLHSGVPSRFSGSGSGTDYSLTISNLEQEDIATYFCQQGDTVPWTFGGGTKLEIK

What was measured:
[1] = molecular target: HLA-DR on solid tumor cell lines C32, HT-144 (melanoma) and OVCAR-5 (ovarian) (human); assay: cell-based or functional assay
[2] = molecular target: HLA-DR on solid tumor cell lines C32, HT-144 (melanoma) and OVCAR-5 (ovarian) (human, UniProt P01903 26-254; P01911 30-266); assay: cell-based or functional assay

Molecule	specific cell death in C32 and HT-144 cells, 24 hour assay, 10 µg/ml [1]	specific cell death in C32 and HT-144 cells, 24 hour assay, 10 µg/ml [2]
L227 (anti-HLA-DR β, ATCC HB-96) (antibody)	40%	
1D10 (antibody)	5 to 15%	
B1		~40%
